The source of these data is article PMC7138851, “Quantitative assessment of the determinant structural differences between redox-active and inactive glutaredoxins” (Nature Communications, 2020).

Experiment in all cases: purified protein, by the assay type
Holding throughout (details): pH 8.0; 25.0 °C

Substrate in series [1]: N[C@@H](CCC(=O)N[C@@H](CS)C(=O)NCC(=O)O)C(=O)O
The arrangement: GSSCys oxidoreductase assay, steady-state kinetics, coupled NADPH consumption at 340 nm, pH 8.0, 25 °C. As for the experimental part:
(§1) Steady-state kinetics of wild-type and mutant ScGrx7 and HsGrx5^C122S in the GSSCys and [compound left out] assays were determined spectrophotometrically by monitoring the consumption of NADPH at 340 nm and 25 °C using a thermostated Jasco V-650 UV/vis spectrophotometer[11],[19],[25]. Fresh stock solutions of NADPH, GSH, GR, and GSSCys or [compound left out] were prepared in assay buffer containing 0.1 M Tris/HCl, 1 mM EDTA, pH 8.0 before each experiment. Both assays were performed with 0.1 mM NADPH and 1 U/ml ScGR. The following final protein concentrations were used for Y110F/H/A (5–150 nM), D144A/K (10 nM), E147A/K (10 nM), R153A/E (25–50 nM), ScGrx7^WP (20 nM), ScGrx7^loop (up to 1.4 µM), ScGrx7^WP+loop (up 2.6 µM), HsGrx5^C122S (up to 15 µM), HsGrx5^RR (up to 12 µM), HsGrx5^loop (up to 1.6 µM), and HsGrx5^RR+loop (up to 4.0 µM). For the GSSCys assays, GSH was varied between 50 µM and 1.5 mM at fixed GSSCys concentrations (25, 50, 100, and 150 µM). NADPH, GSH, and GR were mixed in assay buffer before Grx was added and a baseline was recorded for 30 s. All GSSCys assays were started by the addition of GSSCys. The absorbance of a reference cuvette containing all components but no Grx was measured in parallel and subtracted from the obtained Grx activity. For the [compound left out] assays, GSH was varied between 100 µM and 2.0 mM at fixed concentrations of [compound left out] (0.18, 0.37, 0.55, and 0.74 mM). NADPH, GSH, and [compound left out] were preincubated in assay buffer for 2 min before GR was added and a baseline was recorded for 30 s. All [compound left out] assays were started by the addition of enzyme. Kinetic data were analyzed in Excel and SigmaPlot 13 by nonlinear and linear regression according to Michaelis–Menten, Lineweaver–Burk, Eadie–Hofstee, and Hanes theory[11],[19],[25]. 13 Supplementary Figure 7 Supplementary Figure 7 | GSSCys assay steady-state kinetics of ScGrx7 wild-type enzyme and D144X mutants. (a) Michaelis-Menten plots of the GSH-dependent reaction velocity at different initial concentrations of GSSCys. […]

Substrate in series [2]: N[C@@H](CCC(=O)N[C@@H](CSSC[C@H](N)C(=O)O)C(=O)NCC(=O)O)C(=O)O
More on the design: GSSCys oxidoreductase assay, steady-state kinetics, coupled NADPH consumption at 340 nm, pH 8.0, 25 °C. As for the experimental part: as §1

Substrate in series [3]: N[C@@H](CCC(=O)N[C@@H](CS)C(=O)NCC(=O)O)C(=O)O
More on the design: GSSCys oxidoreductase assay, steady-state kinetics, coupled NADPH consumption at 340 nm, pH 8.0, 25 °C. As for the experimental part: as §1
This is another data set of the same source.

Substrate in series [4]: N[C@@H](CCC(=O)N[C@@H](CS)C(=O)NCC(=O)O)C(=O)O
More on the design: GSSCys oxidoreductase assay, steady-state kinetics, coupled NADPH consumption at 340 nm, pH 8.0, 25 °C. As for the experimental part:
as §1
This is another data set of the same source.

Substrate in series [5]: N[C@@H](CCC(=O)N[C@@H](CS)C(=O)NCC(=O)O)C(=O)O
The arrangement: Disulfide oxidoreductase assay, steady-state kinetics, coupled NADPH consumption at 340 nm, pH 8.0, 25 °C. As for the experimental part:
Steady-state kinetics of wild-type and mutant ScGrx7 and HsGrx5^C122S in the GSSCys and [compound left out] assays were determined spectrophotometrically by monitoring the consumption of NADPH at 340 nm and 25 °C using a thermostated Jasco V-650 UV/vis spectrophotometer[11],[19],[25]. Fresh stock solutions of NADPH, GSH, GR, and GSSCys or [compound left out] were prepared in assay buffer containing 0.1 M Tris/HCl, 1 mM EDTA, pH 8.0 before each experiment. Both assays were performed with 0.1 mM NADPH and 1 U/ml ScGR. The following final protein concentrations were used for Y110F/H/A (5–150 nM), D144A/K (10 nM), E147A/K (10 nM), R153A/E (25–50 nM), ScGrx7^WP (20 nM), ScGrx7^loop (up to 1.4 µM), ScGrx7^WP+loop (up 2.6 µM), HsGrx5^C122S (up to 15 µM), HsGrx5^RR (up to 12 µM), HsGrx5^loop (up to 1.6 µM), and HsGrx5^RR+loop (up to 4.0 µM). For the GSSCys assays, GSH was varied between 50 µM and 1.5 mM at fixed GSSCys concentrations (25, 50, 100, and 150 µM). NADPH, GSH, and GR were mixed in assay buffer before Grx was added and a baseline was recorded for 30 s. All GSSCys assays were started by the addition of GSSCys. The absorbance of a reference cuvette containing all components but no Grx was measured in parallel and subtracted from the obtained Grx activity. For the [compound left out] assays, GSH was varied between 100 µM and 2.0 mM at fixed concentrations of [compound left out] (0.18, 0.37, 0.55, and 0.74 mM). NADPH, GSH, and [compound left out] were preincubated in assay buffer for 2 min before GR was added and a baseline was recorded for 30 s. All [compound left out] assays were started by the addition of enzyme. Kinetic data were analyzed in Excel and SigmaPlot 13 by nonlinear and linear regression according to Michaelis–Menten, Lineweaver–Burk, Eadie–Hofstee, and Hanes theory[11],[19],[25].

B1: ScGrx7 (Saccharomyces cerevisiae S288C) (protein)
chain: SVNESITTHHPDSLVTFDNSGNAPGTHQSVHDTVNTQDKEAEEVDKNSGDAEFDAAAEYNKIMEQSPMIVFSKTGCPYSKKLKALLTNSYTFSPSYYVVELDRHEHTKELQDQIEKVTGRRTVPNVIIGGTSRGGYTEIAELHKNDELLDSFKKWSDGAFTVKANSQSESA
notes: E. coli XL1-Blue, pQE30; N-terminal MRGS(H)6 tag
For B1, the Km – broadly, the substrate concentration at which the rate is half of its maximum – stood at 1479 µM in series [1]; 427 µM in series [2]; 286 ± 45 µM in series [3]; 291 ± 17.6 µM in series [4]; 1.10 ± 0.10 mM in series [5]. Moreover, the catalytic constant (kcat) (usually the maximal rate divided by the concentration of active sites) turned out to be 334 s⁻¹ in series [1], 79.9 ± 27 s⁻¹ in series [3], 75.2 ± 1.6 s⁻¹ in series [4] and 72.9 ± 3.4 s⁻¹ in series [5]. For the same protein, the specificity constant (kcat/Km) (as a rule, the second-order rate constant that governs catalysis at low substrate concentration) in series [3] worked out at 273000 M⁻¹ s⁻¹; in series [4], 258000 M⁻¹ s⁻¹; in series [5], 66500 M⁻¹ s⁻¹.
